# Laboratory results taken from the nanobody polyreactivity screen of Harvey et al. (2022).
# Test: yeast display, Sf9 membrane polyspecificity reagent, FACS + sequencing; frameworks hold sequencing errors
# Method in brief: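 Galactose-induced (36–48 hours) yeast carrying a synthetic nanobody display library were exposed to 10% biotinylated, detergent-solubilized Sf9 membrane reagent at 4 °C for 1 hour. FACS followed streptavidin microbead enrichment, using low and high (top ~1%) gates for expression (anti-HA) and reagent binding (streptavidin). Colony PCR, MiSeq 2 × 250 sequencing and CDR-length filtering followed. Labels for polyreactivity reflect the gate of origin.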
row,Sequence,polyreactivity (PSR sort gate)
1,QVQLVESGGGLVQAGGSLRISFAASGFTFNLYAMGWYRQAPGKERELVAAISWSGGRTYYADSVKGRFTISRDNAKNTVYLQMNSLKPEDTAVYYCNAPYWTSKSRFDYWGQGTQVTVSS,low polyreactivity
2,QVQLVESGGGLVQAGGSLRISSAASGRTFATYVMGWYRQAPGKERELVASITRGGSTNYADSVKGRFTISRDNAKNTVYLQMNSLKPEDTAVYYCAASFLATYDYWGLGTQVTVSS,low polyreactivity
3,QVQLVESGGGLVQAGGSLRISSAASGSIFGRYAMGWYRQAPGKERELVAAISSGTSTYYADSVKGRFTISRDNAKNTVYLQRNSLIPEDTAVYYCAARRYSVRSGGTGRMYYWGQGTQVTVSS,high polyreactivity
4,QVQLVESGGGLVQAGGSLRISSAASGSITPYYTMGWYRQAPGKERELVATITSGGNTYYADSVKGRFTISRDNAQNTVYLQLNSVKPEDTAVYYCAAEGVWGIFDYWGKGTQVTVSS,low polyreactivity
5,QVQLVESGGGLVQAGGSLRISWAASGFTFYTYMGWYRQAPGKERELVAAISWSGDSTYYADSVKGRFTISRDNAKNTVYLQMNSLKPEDTAVYYCIADHGGSRYDYWGQGTQVTVSS,low polyreactivity
6,QVQLVESGGGLVQAGGSLRKSCAASRGILETNAIGWYRQAPGKERELVAAIDFSAGSTYYADSVKGRFTISRDNAKNTVYLQMNSLKPEDTAVYYCATRLGVLYDYWGHGTQVTVSS,low polyreactivity
7,QVQLVESGGGLVQAGGSLRLAVLPPDLPSTLNDMGWYRQAPGKERELVAAITRGGSTNYADSVKGRFTISRDNAKNTVYLEMNSLKPEDTAVYYCAAPYAGWRDGGDYWGQGTQVTVSS,low polyreactivity
8,QVQLVESGGGLVQAGGSLRLCCAASGRTFPYYALGWYRQAPGKESELVAGITSNAGSTYYADSVKGRFSISRDNAKNTVYLHRHRLKAEDTAVYYCAKYGRATRGLDNYWGQGTQVTVSS,high polyreactivity
9,QVQLVESGGGLVQAGGSLRLFCAASGITSSYYAMLWYRQAPGKERDLVADISQSGGSTYYADSVKGRFTISRDNAKNTVYLQMNSLKPEDTAVYYWAADTYWWSYLYDYWGQGTQVTVSS,high polyreactivity
10,QVQLVESGGGLVQAGGSLRLICAASALIFGAYTMGWYIQAPGKERELVAAIRRSGSTYYPDSVKGRFTISRDNAKNTVYLQMNSLKPEDTAVYYGNARIGPGRYTYYRSGYDYWGQGTQVTVSS,high polyreactivity
11,QVQLVESGGGLVQAGGSLRLICAASGFIFGGYAMGWYRQAHGKERELVAAISSSGGSTYYADSVKGRFTISRDNAKNTVYLQMNSLKPEDTAVYYCAADRYYYRGRYYGYTREFDYWGQGTQVTVSS,high polyreactivity
12,QVQLVESGGGLVQAGGSLRLICAASGFIFPVNAMGWYRQAPGKERELVAAITSSGGDTYYADSVKGRFTISRDNAKNTVYLQMNSLKPEDTAVYYFAAEYTQEQEDYDYWGQVTQVTVSS,low polyreactivity
13,QVQLVESGGGLVQAGGSLRLICAASGFIFRRNARGWSRPAPGTERELVAAISSSGGSTYYADSVKGRFTISRDNAKNTVYLQMNSLKPEDTAVYYCATVLRVTRVDYWGQGTQVTVSS,high polyreactivity
14,QVQLVESGGGLVQAGGSLRLICAASGFIFRSYAMGWYRQAPGKEREFDAGINRRGGSTYYADSVKGRFTISRDNAKNSVYLQMNILKPEDTAVYYCAAVYYNRVDYWGQGTQVTVSS,high polyreactivity
15,QVQLVESGGGLVQAGGSLRLICAASGFIFVWYAMGWYRQAPGKERELVAAISRRGGGTYYADSVKGRFTISRDNAKNTVYLQMNSLKPEDTAVYYCAAGSYYRYGYDFNYWGQGTQVTVSS,high polyreactivity
16,QVQLVESGGGLVQAGGSLRLICAASGFISSENAMGWYRQAPGKERELVAAISSGGSTNYADSVKGRFTISRDNAKYTVYLQMYSLKPEDTAVYYCNAEAIQAVYYAYEYWGQGTQVTVSS,low polyreactivity
17,QVQLVESGGGLVQAGGSLRLICAASGFTFAGYAMGWYRQARGKDRELVAGIRSSGARTYYADSVKGRFTISRDNAKNTVYIQMNSLKPEDTAVYYCAKTDGFYRGYGYWGQGTQVTVSS,low polyreactivity
18,QVQLVESGGGLVQAGGSLRLICAASGFTFARYAMGWYRQAPGKERELVAAITSAGSTSYADSVKGRFTISRDNAKNTVYLQMNSLKPEDTAVYYCAAPFTVRYNYWGQGTKVTVSS,high polyreactivity
19,QVQLVESGGGLVQAGGSLRLICAASGFTFLTYAMGWYRQAPGKERELVAAIDSGDSTKYADSVKGRFTISRDNAKYTVYLQMNSLKPEDTAVYYCNASRRYHVLAPYDYWGQGTQVTVSS,low polyreactivity
20,QVQLVESGGGLVQAGGSLRLICAASGFTFRRYAMGWYRQAPGKEREFVAVITWSGTRTYYADSVKGRFTISRDNAKNTVYLQMNSLKPEDTAVYYCAAYITDVAGRAYDYWGQGTQVTVSS,high polyreactivity
21,QVQLVESGGGLVQAGGSLRLICAASGFTFSQYAMGWYREAPGKERELVAAISWNGGSTYYADSVKGRFTISRDNAKNTVYLQMNSLKPEDTAVYYWNRRWPFVRFYYWGQGTQVTVSS,high polyreactivity
22,QVQLVESGGGLVQAGGSLRLICAASGFTFVANAMGWYRQAPGKERELVAVIDWDDGSTYYADSVKGRFTISRDNAKNTVYLQMYSLKPEDTAVYYCARDVYASPRLYTSRYNYWGQGTQVTVSS,low polyreactivity

row,Sequence,polyreactivity (PSR sort gate)
1,QVQLVESGGGLVQAGGSLRLICAASGFTFYKYTMGWYRQAPGKERELVAAISARGGSTYYADSVKGRFTISRDNAKNTVYLQMNSLKPEDTAVYYCAADYWRTYGLGYDYWGQGTQVTVSS,high polyreactivity
2,QVQLVESGGGLVQAGGSLRLICAASGFTIWFNAMGWYRQAPWKERDLVATIRGSGGTTYYAYSVKGRFTISRDNAKNTVYLQMNSLKPEDTAVYYCAAEGSFRKFDYCGQGTQVTVSS,low polyreactivity
3,QVQLVESGGGLVQAGGSLRLICAASGFTIYRYAMGWYRQAPGKERELVATIRRGGSTKYADSVKGRFTISRDNAKNTVYLQMNSLKPEDTAVYYCNARYYAAPDKYYYWGQGTQVTVSS,low polyreactivity
4,QVQLVESGGGLVQAGGSLRLICAASGFTLADNGMGWYRQAPGKERELVATISGGGSTNYADSVKGRFTISRDNAKNTVYLQMISLKPEDTAVYYCAKEGRYSWYTLSEYDYWGQGTQVTVSS,low polyreactivity
5,QVQLVESGGGLVQAGGSLRLICAASGFTLTRNAMGWYRQAPGKESELVAAISWSGGTTYYADSVKGRFTISRDNAKNTVYLQMNSLKPEDTAFYYCNTASWRDQYYYWGQVTQVTVSS,high polyreactivity
6,QVQLVESGGGLVQAGGSLRLICAASGGIFYVNAMGWYRQAPGKERELVADIRYSGTSTYYADSVKGRFTISRDNAKNTVYLQMNSLKPEDTAVYYCAVDAWDTTLVYEQGAERDSWGQGTQVTVSS,low polyreactivity
7,QVQLVESGGGLVQAGGSLRLICAASGIIFAVYARGCYRQAPGKERELVAAISTSGGRTDYADSVKGRFTISRDNAKNTVYLQMNSLKPEDTAVYYCAAEYVGKGTPDDYDYWGQGTQVTVSS,high polyreactivity
8,QVQLVESGGGLVQAGGSLRLICAASGIIFGNNAMGRYRQAPGKERELVAAIRWSTGTTYYADSVKGRFTISRDNATNTVYLQMNSLKPEDTAVYYCAARLRREYGYWGQGTQVTVSS,high polyreactivity
9,QVQLVESGGGLVQAGGSLRLICAASGIIFRSYAMGWYRQAPGKERELVAGISLSGGSTYYADSVKGRFTISRDNAKNTVYLQMNSLKPEDTAVYYCAARRRYKSGYWGQGTQVTVSS,high polyreactivity
10,QVQLVESGGGLVQAGGSLRLICAASGIIFRVYAMGWYRQAPGKERELVATITWSGGSTFYADSVKGRFTISRDNAKNTVDLQRNSLKPEDTAVYYCAARGYLRGEQLYVLIRYDYWGQGTQVTVSS,low polyreactivity
11,QVQLVESGGGLVQAGGSLRLICAASGIIFTGYTMGWYRPAPGKERELVAAITWRGGSTYYADSVKGRFTISRDNAKNTVYLQMNSLKPEDTAVYYCAAEGWYSWDDDYWGQGTQVTVSS,low polyreactivity
12,QVQLVESGGGLVQAGGSLRLICAASGIIFYKYTMGWYRQAPGKERELVAAITKSGVRTYYADSVKGRFTISRDNAKNTVYLQMNSLKPEDTAVYYCAAKTPTKDRGSDFDYWGQGTQVTVSS,high polyreactivity
13,QVQLVESGGGLVQAGGSLRLICAASGIIFYRYAMGWYRQAPGKEREFVAAISRGGGSTYYADSVKGRFTISRDNAKNTVYLQMNSLKPEDTAVYYCNARVTRVTVDQYSIKSMDYWGQGTQVTVSS,high polyreactivity
14,QVQLVESGGGLVQAGGSLRLICAASGIILFYAMGWYRQAPGKERELVAAISSGGGTSYADSVKGRFTLSRDNAKKTVYLQMNSLKPEDTAVYYCAKTDGFYRGDGYWGQGTQVNVSS,low polyreactivity
15,QVQLVESGGGLVQAGGSLRLICAASGITFTGYAMGWYREAPGKEREVVAPISKRGARTYYADSVKGRFTISRDNAKHTVYVQMNSLQPEDTAVYYCAVRRWGYWTGYRGLDYDYWGQGTQVTVSS,high polyreactivity
16,QVQLVESGGGLVQAGGSLRLICAASGITFTQYAMGWYRQAPGNEREFVAGITISGSSTYYADSVKGRFTISRDNAKNTVYLQMNRLKPEDTAVYYCAAGVRRVYASGHGAYGYWGQGTQVTVSS,low polyreactivity
17,QVQLVESGGGLVQAGGSLRLICAASGLIFPRYDMGWYRQAPGKERELVAAITSGGGTYYADSVKGRFTISRDNAKNTVYLQMNSLKPEDTAVYYCARDHYRHSRYFYRYDYWGQGTQVTVSS,low polyreactivity
18,QVQLVESGGGLVQAGGSLRLICAASGLILKYYAMGWYRQAPGKEREFVAAITRRGGITYYADSVKGRFTISRDNAKNTVYLQMNSLKPEDTAVYYCAADPKLGSLAYWRYSYPLYDYWGQGTQVTVSS,low polyreactivity
19,QVQLVESGGGLVQAGGSLRLICAASGLTFTKYAMGWYRQAPGKERELVATITSGGSTNYADSVKGRFTISRDNAKNTVYLQMNSLKPEDTAVYYCNRDNYKWPYWEFDYWGQGTQVTVSS,high polyreactivity
20,QVQLVESGGGLVQAGGSLRLICAASGLTFYYYAMGWYRQAPGKERELVAASSTRGTSTYYADSVKGRFTISRDNSKNTVYLQMNSLKPEDTAVYYCAADSYPCGTGGDYWGQGTQVTVSS,high polyreactivity
21,QVQLVESGGGLVQAGGSLRLICAASGNIFDVNAMGLYRQAPGKERELVAGITTNGGRTFYADSVKGRFTFSRDNAKNTVYLQMNSLKPEDTAVYYWNARHGRHRRTPFAKYDFWGQGTQVTVSS,high polyreactivity
